Drawing on publication PMC9666535, this text covers Kd for one substance.

For the assay, the target named is PCNA N107C labeled with Cy5 (human) (UniProt P12004). Put plainly: native gel or EMSA; protein-protein EMSA in solution, no DNA: 1 nM PCNA-Cy5 with increasing Polδ Exo^− or Lig1, 20 min at RT, 6% non-denaturing TBE-PAGE; bound PCNA fitted to a quadratic isotherm.
Chain of PCNA N107C labeled with Cy5 (human) (P12004 whole entry N107C): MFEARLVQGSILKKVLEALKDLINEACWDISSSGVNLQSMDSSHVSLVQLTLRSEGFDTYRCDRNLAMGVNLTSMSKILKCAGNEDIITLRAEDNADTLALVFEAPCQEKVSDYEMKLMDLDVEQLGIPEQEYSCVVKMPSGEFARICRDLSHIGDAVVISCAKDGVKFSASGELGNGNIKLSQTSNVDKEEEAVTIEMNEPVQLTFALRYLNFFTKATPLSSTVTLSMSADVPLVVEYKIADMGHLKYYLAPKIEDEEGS

Substance “Polδ Exo^− (D515V in p125) (from UniProt P28340 1-1107; Q9HCU8 1-107) (complex)” had a Kd of 15 nM. That is a double-digit nanomolar value.

The Kd is the concentration at which binding is half-saturated. Low readings indicate higher affinity, high ones lower affinity.
